Drawing on patent US20170081379A1, this text covers Kd for one substance.

In this test the target is recombinant HDM2 17-125 (human) (UniProt Q00987). Briefly: fluorescence polarization, FITC-labeled peptide with HDM2 17-125.
Chain of recombinant HDM2 17-125 (human) (Q00987 17-125 limits assumed): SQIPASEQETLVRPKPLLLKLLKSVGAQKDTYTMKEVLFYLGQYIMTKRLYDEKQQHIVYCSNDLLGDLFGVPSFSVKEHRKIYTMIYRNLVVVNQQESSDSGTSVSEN

FITC-SAH-p53-8F19A (peptide): the Kd was above 4 µM.
